Experiments:
Assay in all cases: cell-based or functional assay
[1] = biological target: SARS-CoV-2 Delta (B.1.617.2) full-length Spike protein (SARS-CoV-2) (UniProt P0DTC2)
[2] = biological target: SARS-CoV-2 Gamma (P.1.B.1.1.28) full-length Spike protein (SARS-CoV-2) (UniProt P0DTC2)
[3] = biological target: SARS-CoV-2 Delta-plus (B.1.617.2.1) full-length Spike protein (SARS-CoV-2) (UniProt P0DTC2)
[4] = biological target: SARS-CoV-2 Epsilon (B.1.427/9) full-length Spike protein (SARS-CoV-2) (UniProt P0DTC2)
[5] = biological target: SARS-CoV-2 Alpha (B.1.1.7) full-length Spike protein (SARS-CoV-2) (UniProt P0DTC2)
[6] = biological target: SARS-CoV-2 Beta (B.1.351) full-length Spike protein (SARS-CoV-2) (UniProt P0DTC2)

Measured: Pseudovirus Neutralization

Anti-Nucleocapsid (Neg Control) (antibody)
> 50 µg/mL: all assays above

Reference: patent US20240025971A1
